Source: the supplement of paper PMC9170038

tested on: K4 kissing-loop RNA reporter; test: apparent KD of K4 kissing-loop reporter; higher = weaker reporter binding; settings: Eterna round: R107; input ligand: arginine 13.2 mM
Description: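 RNA-MaP round R107: designed RNA switches with theophylline, tryptophan, arginine or FMN aptamers are transcribed on-chip within common flanks. They are titrated with a labelled K4 kissing-loop RNA reporter in RNA-MaP buffer (100 mM Tris pH 7.5, 80 mM KCl, 4 mM MgCl2), without ligand or with the indicated ligand. Median apparent KD per design.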
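Further: bound reporter read as fluorescence of individual clusters on recovered sequencing chips by microscopy, with normalized cluster intensities fitted with a binding model.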

Row | Sequence | apparent KD of K4 kissing-loop reporter [µM]
1 | AGCUGUGGCAGAAGGAGCGGCAGUUAUUCUGAUAGUACUCUGAGUGAUGUUCAGAACGACUGUCAGGUAGGUCGCUGUCACAGCU [#02 K4 Arginine B Exclusion] | 0.252
2 | CGCAGUGAUGUUGCUAUUAUUCUUGAUUAACGAGGACCGGUACGGCCGCCACUCGGUUUCUAUCUGAUCCAGCGUUUUGUUGAGU [#23 K4 Tryptophan A Exclusion] | 0.562
3 | UGACUGGACUGAAGGAGCGGGCGAGACAAAGUCUCGAACUGCUAGUGAUGUUAGCAAAUAACCCAGGUAGGUCGCAGUCUAGUCU | 0.1
4 | CGUGUAAUGUGGAGAUUUGAAAAGGCGCAUCGAGGACCGGUACGGCCGCCACUCGCUACGAGCUAGUGAUGUUGGCUCGUUCGGA [theeternabot_sameState_KL_Trp_A_23] | 0.209
5 | AAGGCACGGCUUCGGCCGUGCCAAAUAGAUACCAGCAUAAUAAUAUGCCCUUGGCAGCUAAAUAUAAAUUCAGUGAUGUUGGAUA [SS Theo A Tesla 2.2] | 0.412
6 | UGAUACCAGACUGAUACCAGCCAGUGAUGUUGGCUAAGCCAAAUAGGAGUCAAAGACUCCGGCCCUUGGCAGCAGUCUGGUAUCU [TheoBX 5 #SwitchBubble #StaticStem] | 0.117
7 | GAAGGUCAAAGACCUUCGUGCACAUCUGAUACCAGUCGCGAAAGCGACCCUUGGCAGCAGGGCAGUGAUGUUGCCAGUGCACAAA [Omei KL Theo A SS A v4] | 0.221
8 | UGACACUCAACGGCCGCCACUACCGUCGCCGAAUUCCGCAGUGAUGUUGCGAUCCUCCGAUUGUCUAGGACCGGGUUGUUUGGGC [theeternabot_exclusion_KL_Trp_B_43] | 0.209
9 | AUCCAUAGUGAUGUUGUGAGCGGAGGCACCAAGGAUAUUGCCAGCCCAAGAAGGUGGGUCCCACACACCAGGCAUACAAGUCCGG [theeternabot_exclusion_KL_FMN_A_43] | 0.845
10 | GGAUAGGAUAGAGGAUAUGGUAGUGAUGUUACCAAACUGGUUAAACAUGUCAGAAAACUGGCAUGACCAGAAGGCUGUCCUAUCG [FmnBX 27 U9] | 0.0634
11 | UGGAGUUGACGAAAAGUCAACUCCUGAGAUCGAGGACCGGUACGGCCGCCACUCGAGCUAACUGCGAGUGAUGUUCGAAAAUAAA [#OpenEnded 1 - Direct theophylline transfer] | 0.313
12 | AAAAUAAACCAGUGAUGUUGGUGUCCGGAUACCAGCGAUAAUCAUCGCCCUUGGCAGCCGCGGACGUACAAAAUAAGUACGUCCU [MatMod 13 - Jieux - Same State - Theophylline A] | 0.271
13 | AGACUACCACACUGUCAAUAGACAGUGUACUAGGAUAUGCUGAUAAGCAGAAGGAGUGAUGUUCCUAGGUAGUCAAUAAAAUAAU [FmnAX 13 U28] | 0.443
14 | UCCUAGGCUCGAAAGAGCCUAGGAUGGACUCAGGAUAUCCGGAAACGGAGAAGGGAGUCACUAGUGAUGUUAGGGACUCCCUAAC | 0.0977
15 | AAUAUAGUGAUGUUAUAUAAGAAGGAGUUACGAGGACCGGUACGGCCGCCACUCGAAACGAGUGAAGAAGGAGGAAGGAGGAGGA [SSTRyptA.A] | 0.3
16 | UUAUAUACGAGUGAUGUUCGUUAUUUAUCAGAGGAUAUGCUUAAAUGCAGAAGGCUGUAUUUCUAUUUGAUAUUAAAUUUUAUAA [JR_Nu3_ExcFMNA_Sub026] | 0.0898

Row | Sequence | apparent KD of K4 kissing-loop reporter [µM]
17 | UGGACCUGACUCGAUAAGAGUCAAUGAGAUACCAGUGACGAAAGUCACCCUUGGCAGCUCCUGCCAGUGAUGUUGGUAAGGUCCU [#SwitchBubble 4 #StaticStem] | 0.252
18 | UGACAUUGCUCAGAUACCAGACAUGAGCAUCAGCCAUGUGCCAACGUACAAAUAAUAAAUGUCCCUUGGCAGCUGAGCAAUGUCU [TheoBX 15] | 0.0258
19 | UACAUCGAGCAGAGUGAUGUUUUGUGCGAUACCAGCAAGUGCAAGUGCCCUUGGCAGCGCAAGCGGUUGUAUGUAGGACCGGACG [theeternabot_exclusion_KL_Theo_A_21] | 0.647
20 | GCAGUGAUGUUGCGGAUGUACAGUGGCGUGCGAGGACCGGUACGGCCGCCACUCGUACAGAACAAGCUAAUACAUCGAUAGGUGA [whbob_SS_Tryp_A_m1] | 0.294
21 | CUCUAGGCGCUCGCGUGAGUGAUGUUUACGCGAGGACCGGUACGGCCGCCACUCGCAGACUGGGUGUAAGCGGAGCUGUAUGCCC [theeternabot_exclusion_KL_Trp_A_12] | 0.158
22 | UGACUGGAUGGAAGGAGCGCUAAACUCCUAGUGAUGUUAGGGACAUGAGGCAAAGCCUUGAAGCAGGUAGGUCGCCAUCUAGUCU [FiskerMod 27 - Jieux - Same State - Arginine B] | 0.133
23 | UGAUAGGACAGAAGGAGCGGUAGUGAUGUUACCAAAAGUAUAAGGUGUCAAAAGACACCCUGCCAGGUAGGUCGCUGUCCUAUCU | 0.21
24 | AAGCAGUCUCUCGAAGCCAUCGAAGAUGGGCGAGGACCGGUACGGCCGCCACUCGGAGUGAUGUUCCGAAGACUGCAAAAUAAAA [MatMod 10 - Jieux - Exclusion - Tryptophan A] | 0.223
25 | AGUGCACUGUCAGGAUAUAUACAGUGAUGUUGUGUAUGUCAGCAAGUCAAAGACUUGCUUUUCUGUGUAGAAGGGACUGUGUACA [Omei KL FMN B Exc A v2] | 0.134
26 | UGAUAGGACAGAAGGAGCGGUAGUGAUGUUACCAAAAGGGUAAGGUGUCAAAAGACACCCUACCAGGUAGGUCGCUGUCCUAUCU | 0.096
27 | GAUGUAGAGGCGGCCGCCACUAGUGAUGUUAGUGAUGUUUGAUACUGUAUAUAUCGGCGUGUAGAUAGGACCGGGCCUGAUGGAG [dbbdmullin] | 0.165
28 | UCUGGUAUAUCUGAUACCAGAGUAUAGUAUCAAUUGAAUAUGGAGUGAUGUUCCAUACAACUCCCUUGGCAGCAGAUCUUCCUCU [Same State Theophylline B GF 23] | 0.206
29 | UGGAUAUAGUUUAGUCUGGUGAGGUCAGAUACCAGACUAGCGAUAGUCCCUUGGCAGCUGAUUAUGAUUGAGUGAUGUUCAAUCG [Theo A Ex t9] | 0.151
30 | GAAUUAAUGUCUUUAAUAUAAUAAUCAGAUACCAGUGAUUUGUGACACCCUUGGCAGCUGUAUAGAGUGAUGUUCUUAUACAUAA [#12 K4 Theophylline A Exclusion] | 0.46
31 | AACGUGGCCAAAGGAUAUCUCCCUACGUCGUUGCAUCUACCUCUGUUUGCUCUGAGUGAUGUUUGGAGAGAAGGUUGAGGCGAUU [theeternabot_exclusion_KL_FMN_B_29] | 0.317
32 | CCAAGCGUCAGCGAUACCAGAAUUCUAGUGAUGUUAGGUUCUGUCAUUGUACUAGCAGUGUUCCCUUGGCAGCGCGUGAUAGGCA [theeternabot_exclusion_KL_Theo_B_16] | 0.121

same assay, conditions: Eterna round: R107; input ligand: none

Row | Sequence | apparent KD of K4 kissing-loop reporter [µM]
33 | GUACGCUCUCGAGUGAUGUUCGGUAAUAGAGAGGAUAUCGCUUUUGCGAGAAGGCUCUGAAUGAGGAAACUCGUUCUGAGUGUAC [FMN A 19] | 0.389
34 | UGCCGGAAGGCGAGCGCUCCCACUCCGGAAGGAGCGCCCGUAAGGGCAGGUAGGUCGCCGGAGUGAUGUUCCGGUGGAGGGCUCG [#2 Exclusion - Arginine A Attempt #22 (Inspired by Omei)] | 0.193
35 | AACCUUGUAGUGAUGUUGCAAGGCGCUGAUACCAGUCACAGCCACGACCCUUGGCAGCAGUGGCGUUCAUGAUAAAAUAGAUUAA [theeternabot_sameState_KL_Theo_A_49] | 0.0414
36 | UAUUGAUUGUCAGGAUAUCGUAAACGAGUGAUGUUCGUAAAUCGACGAUAGUCGAUAUGAUCUGAACGAGAAGGGACAUUAUUUA [JR_SSFMNB_Sub010] | 0.388
37 | AGUACAAUGGCGGCCGCCACUCAAUGGGCGACCGAAAGGUCGCAUCACUCAGUGAUGUUGAGUGAGAGGACCGGGCCUUUGUACA [Omei KL Tryp B SS B v8] | 0.611
38 | CGGAUGUAGUGAUGUUAUAUUAGAUGUAGACGAGGACCGGUACGGCCGCCACUCGUGACGGCUGCUAGCGCGUUGCGAGGUUUGC [ExTryptoA.Cn] | 0.758
39 | AGAUAGGGCUGAAGGAGCGUCGGAGAAGAGAAGAAGGAAUCCAGUGAUGUUGGAUAGAUCCGACAGGUAGGUCGCAGUUUUAUGA [hbob_SS_Arginine_B_2t139] | 0.133
40 | UAUAUAGUGACGGCCGCCACUAUAUUAAUGUUUAGGUUAGAGUGAUGUUUUGAUUAAUAUUUUUAUAGGACCGGGUUAUAUGUUA [xerrmullin] | 0.511
41 | UAUCGAGUGAUGUUCGAUGUAGUGCAUUCAGAGGAUAUAGGAUGGGCUAGAAGGCUGAAAAGUGCUUCGAGUGAUGUUCGAAGAU [Exclusion FMN A GF 5] | 0.0803
42 | CGAGUCGGUUCAGAUACCAGCCAAUUAGAGUCGAGUGAUGUUCGACAAUGAACGUCCAAAGGCCCUUGGCAGCUGGAUUGGGAAC [Same State Theophylline B GF 20] | 0.104
43 | AGCUGUGGCAGAAGGAGCGGCAGUUAUUCUGAUAGUACUCUGAGUGAUGUUCAGAACGACUGUCAGGUAGGUCGCUGUCACAGCU [#02 K4 Arginine B Exclusion] | 0.234
44 | CGCAGUGAUGUUGCUAUUAUUCUUGAUUAACGAGGACCGGUACGGCCGCCACUCGGUUUCUAUCUGAUCCAGCGUUUUGUUGAGU [#23 K4 Tryptophan A Exclusion] | 0.638
45 | UGACUGGACUGAAGGAGCGGGCGAGACAAAGUCUCGAACUGCUAGUGAUGUUAGCAAAUAACCCAGGUAGGUCGCAGUCUAGUCU | 0.12
46 | CGUGUAAUGUGGAGAUUUGAAAAGGCGCAUCGAGGACCGGUACGGCCGCCACUCGCUACGAGCUAGUGAUGUUGGCUCGUUCGGA [theeternabot_sameState_KL_Trp_A_23] | 0.21
47 | AAGGCACGGCUUCGGCCGUGCCAAAUAGAUACCAGCAUAAUAAUAUGCCCUUGGCAGCUAAAUAUAAAUUCAGUGAUGUUGGAUA [SS Theo A Tesla 2.2] | 0.604
48 | UGAUACCAGACUGAUACCAGCCAGUGAUGUUGGCUAAGCCAAAUAGGAGUCAAAGACUCCGGCCCUUGGCAGCAGUCUGGUAUCU [TheoBX 5 #SwitchBubble #StaticStem] | 0.122
49 | GAAGGUCAAAGACCUUCGUGCACAUCUGAUACCAGUCGCGAAAGCGACCCUUGGCAGCAGGGCAGUGAUGUUGCCAGUGCACAAA [Omei KL Theo A SS A v4] | 0.273
50 | UGACACUCAACGGCCGCCACUACCGUCGCCGAAUUCCGCAGUGAUGUUGCGAUCCUCCGAUUGUCUAGGACCGGGUUGUUUGGGC [theeternabot_exclusion_KL_Trp_B_43] | 0.223
51 | AUCCAUAGUGAUGUUGUGAGCGGAGGCACCAAGGAUAUUGCCAGCCCAAGAAGGUGGGUCCCACACACCAGGCAUACAAGUCCGG [theeternabot_exclusion_KL_FMN_A_43] | 1.16
52 | GGAUAGGAUAGAGGAUAUGGUAGUGAUGUUACCAAACUGGUUAAACAUGUCAGAAAACUGGCAUGACCAGAAGGCUGUCCUAUCG [FmnBX 27 U9] | 0.071
53 | UGGAGUUGACGAAAAGUCAACUCCUGAGAUCGAGGACCGGUACGGCCGCCACUCGAGCUAACUGCGAGUGAUGUUCGAAAAUAAA [#OpenEnded 1 - Direct theophylline transfer] | 0.235
